For the assay, the target named is human six-transmembrane epithelial antigen of prostate 2 (STEAP2) (human) (UniProt Q8NFT2). Briefly: FACS on HEK293 cells (low STEAP2), MFI fold above unstained, average at 100-300 nM antibody.
Sequence of human six-transmembrane epithelial antigen of prostate 2 (STEAP2) (human) (Q8NFT2 whole entry): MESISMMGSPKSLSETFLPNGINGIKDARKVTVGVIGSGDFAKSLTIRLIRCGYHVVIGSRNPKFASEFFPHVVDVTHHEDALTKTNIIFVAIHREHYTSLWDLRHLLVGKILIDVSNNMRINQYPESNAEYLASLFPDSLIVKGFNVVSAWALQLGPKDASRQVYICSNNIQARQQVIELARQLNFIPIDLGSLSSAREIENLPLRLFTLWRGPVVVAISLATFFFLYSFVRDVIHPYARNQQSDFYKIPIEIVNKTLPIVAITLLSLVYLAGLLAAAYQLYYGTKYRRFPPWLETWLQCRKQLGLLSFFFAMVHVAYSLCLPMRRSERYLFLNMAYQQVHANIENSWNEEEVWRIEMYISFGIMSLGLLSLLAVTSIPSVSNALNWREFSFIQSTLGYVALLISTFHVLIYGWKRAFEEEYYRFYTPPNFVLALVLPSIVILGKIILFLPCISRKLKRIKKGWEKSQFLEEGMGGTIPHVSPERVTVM

hIgG1 Isotype Control-I (antibody): the Avg F.A.B (fold above background) (fold above background) was determined as 1.
hIgG1 Isotype Control-II (antibody) came in with an Avg F.A.B (fold above background) (fold above background) of 1.7.

For the origin of these results see patent US20200376136A1.
